Results: patent US20230091653

Assays:
[1] = test system: h00-37 (non-binding control antibody h00 conjugated with compound 37, mp-val-cit-PABC-MMAE)
[2] = test system: h00-7 (non-binding control antibody h00 conjugated with compound 7, mp-Leu-Ala-Glu-PABC-MMAE)
[3] = test system: h00-5 (non-binding control antibody h00 conjugated with compound 5, mp-D-Leu-Ala-Glu-PABC-MMAE)

## Cathepsin B
[1]
  percentage of drug cleaved from the heavy chain (3 h at 37 C, pH 4.5, QToF mass spectrometry): percentage of drug cleaved from the heavy chain of non-targeted ADCs 5 and 7 in vitro by Cathepsin B is similar to that found for non-targeted ADC 37
[2]
  percentage of drug cleaved from the heavy chain (3 h at 37 C, pH 4.5, QToF mass spectrometry): percentage of drug cleaved from the heavy chain of non-targeted ADCs 5 and 7 in vitro by Cathepsin B is similar to that found for non-targeted ADC 37
[3]
  percentage of drug cleaved from the heavy chain (3 h at 37 C, pH 4.5, QToF mass spectrometry): percentage of drug cleaved from the heavy chain of non-targeted ADCs 5 and 7 in vitro by Cathepsin B is similar to that found for non-targeted ADC 37

## neutrophil elastase
[1]
  percentage of drug cleaved from the heavy chain (3 h at 37 C, QToF mass spectrometry): percentage of drug cleaved from the heavy chain of non-targeted ADC 5 in vitro by neutrophil elastase is lower than that found for non-targeted ADC 37
[2]
  percentage of drug cleaved from the heavy chain (3 h at 37 C, QToF mass spectrometry): the h00-5 conjugate ... has its heavy chain cleaved by neutrophil elastase to a significantly lower extent than h00-7
[3]
  percentage of drug cleaved from the heavy chain (3 h at 37 C, QToF mass spectrometry): no proteolosis of h00-5 by neutrophil elastase was observed
